Reference: article PMC5821440
Numbered stars: 1 amine (or outer) side, 2 acyl side, 3 side chain; on linkers, the order of the positions; unused ones are H or OH. * marks the point of attachment. pNA = O=[N+]([O-])c1ccc(N*)cc1; Suc = O=C(CCC(=O)[*:2])[*:1]

Legend:
[1] = biological target: Pro21717-CD, catalytic domain of the cold-active subtilisin-like serine protease Pro21717 from Pseudoalteromonas arctica PAMC 21717 (Pseudoalteromonas arctica PAMC 21717); experiment: not stated; purified Pro21717-CD in solution, three days after refolding; method in S2 Fig, not shown
[2] = biological target: Pro21717-CD, catalytic domain of the cold-active subtilisin-like serine protease Pro21717 from Pseudoalteromonas arctica PAMC 21717 (Pseudoalteromonas arctica PAMC 21717)

With “Pro21717-CD, catalytic domain of the cold-active subtilisin-like serine protease Pro21717 from Pseudoalteromonas arctica PAMC 21717 (domain or fragment)” as the molecule, how does the stoichiometry N [1] read?
Its stoichiometry N is 2.

B1: N-succinyl-Ala-Ala-Pro-Phe-p-nitroanilide (peptide)
peptide: Suc-AAPF-pNA
Which relative proteolytic activity (%) on N-succinyl-AAPF-p-nitroanilide, 0.83 mM, 30°C, 5 min (the best peptide substrate, set to 100) [2] does the source give for B1 here?
Its relative proteolytic activity (%) on N-succinyl-AAPF-p-nitroanilide, 0.83 mM, 30°C, 5 min (the best peptide substrate, set to 100) is 100%.
